# According to article PMC7430637:
# What was measured:
# [1] = target: H3(1-15)unmodified-FAM peptide (C-terminally fluorescein-labelled); test: fluorescence polarisation; FAM-labelled H3(1-15) peptide, recombinant protein titrated; RT; as described (ref. 28)
# [2] = target: H3(1-15)K9me3-FAM peptide (C-terminally fluorescein-labelled); test: as above
# [3] = target: FAM-H3(1-15)K9me3 peptide (N-terminally fluorescein-labelled); test: as above
# [4] = target: murine UHRF1 splicing variant 1 (mUHRF1 V1), full-length, wild type (mouse) (UniProt Q8VDF2); test: MST; 50 nM His-tag-labelled (RED-tris-NTA) UHRF1 protein, H3 peptide titrated; 20 mM HEPES-NaOH pH 7.9, 150 mM NaCl, 0.05% Tween-20; room temperature; Monolith NT.115
# Sequence of murine UHRF1 splicing variant 1 (mUHRF1 V1), full-length, wild type (mouse) (Q8VDF2 whole entry, change not shown): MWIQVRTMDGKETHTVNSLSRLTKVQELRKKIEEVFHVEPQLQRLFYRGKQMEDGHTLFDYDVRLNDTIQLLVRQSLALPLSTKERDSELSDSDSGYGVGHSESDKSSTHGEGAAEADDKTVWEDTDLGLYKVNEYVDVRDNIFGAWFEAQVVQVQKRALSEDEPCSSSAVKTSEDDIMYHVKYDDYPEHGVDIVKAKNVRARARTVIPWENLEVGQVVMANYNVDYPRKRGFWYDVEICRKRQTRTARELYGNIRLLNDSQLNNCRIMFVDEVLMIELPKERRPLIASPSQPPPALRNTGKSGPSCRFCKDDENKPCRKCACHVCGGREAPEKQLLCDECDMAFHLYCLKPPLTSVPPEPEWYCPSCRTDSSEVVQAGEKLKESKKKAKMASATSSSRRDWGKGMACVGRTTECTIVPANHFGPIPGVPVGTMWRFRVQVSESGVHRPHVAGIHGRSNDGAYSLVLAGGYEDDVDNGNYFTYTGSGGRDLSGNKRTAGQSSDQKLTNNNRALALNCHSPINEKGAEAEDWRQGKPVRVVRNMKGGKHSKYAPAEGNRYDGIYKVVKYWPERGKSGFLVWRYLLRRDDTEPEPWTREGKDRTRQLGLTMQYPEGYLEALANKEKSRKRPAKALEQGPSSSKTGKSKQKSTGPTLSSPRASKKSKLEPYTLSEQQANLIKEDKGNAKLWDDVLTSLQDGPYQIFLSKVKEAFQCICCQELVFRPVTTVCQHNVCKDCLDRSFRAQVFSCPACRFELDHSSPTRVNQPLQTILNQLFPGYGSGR
# [5] = target: human UHRF1 (hUHRF1), full-length, wild type (human) (UniProt Q96T88); test: as above
# Sequence of human UHRF1 (hUHRF1), full-length, wild type (human) (Q96T88 whole entry): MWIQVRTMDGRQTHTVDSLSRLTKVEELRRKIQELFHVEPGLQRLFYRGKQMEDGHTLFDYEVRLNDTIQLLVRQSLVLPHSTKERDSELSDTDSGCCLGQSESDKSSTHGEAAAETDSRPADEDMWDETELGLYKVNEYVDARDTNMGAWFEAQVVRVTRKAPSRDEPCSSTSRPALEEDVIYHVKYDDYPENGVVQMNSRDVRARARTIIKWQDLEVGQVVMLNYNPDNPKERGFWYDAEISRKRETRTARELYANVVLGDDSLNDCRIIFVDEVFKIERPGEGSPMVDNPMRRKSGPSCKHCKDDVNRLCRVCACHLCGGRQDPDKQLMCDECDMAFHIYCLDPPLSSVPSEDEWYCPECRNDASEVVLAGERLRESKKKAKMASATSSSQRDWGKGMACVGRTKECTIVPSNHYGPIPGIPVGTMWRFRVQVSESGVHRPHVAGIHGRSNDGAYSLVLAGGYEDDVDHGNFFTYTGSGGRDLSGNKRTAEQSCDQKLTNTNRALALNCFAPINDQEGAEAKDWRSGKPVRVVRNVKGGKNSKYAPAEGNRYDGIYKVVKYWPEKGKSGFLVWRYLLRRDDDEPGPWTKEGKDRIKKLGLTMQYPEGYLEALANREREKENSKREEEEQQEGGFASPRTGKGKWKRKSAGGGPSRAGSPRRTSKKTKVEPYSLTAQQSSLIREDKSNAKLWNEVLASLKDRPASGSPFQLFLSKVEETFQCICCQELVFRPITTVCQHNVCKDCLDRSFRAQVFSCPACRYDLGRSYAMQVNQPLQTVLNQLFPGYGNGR
# [6] = target: murine UHRF1 splicing variant 2 (mUHRF1 V2), full-length, wild type (mouse); test: as above
# [7] = target: FAM-H3(1–15)K9me3 peptide; test: fluorescence polarisation; FAM-labelled H3(1–15) peptide, recombinant protein titrated; room temperature; as described in ref. 28
# [8] = target: H3(1–15)K9me3-FAM peptide; test: as above
# [9] = target: H3(1–15)unmodified-FAM peptide; test: as above
# [10] = target: mUHRF1 V1 R-S* (R298A/N299A/T300A/G301A/K302A/S303A), full-length (mouse) (UniProt Q8VDF2); test: MST; 50 nM His-tag-labelled (RED-tris-NTA) UHRF1 protein, H3 peptide titrated; 20 mM HEPES-NaOH pH 7.9, 150 mM NaCl, 0.05% Tween-20; room temperature; Monolith NT.115
# Sequence of mUHRF1 V1 R-S* (R298A/N299A/T300A/G301A/K302A/S303A), full-length (mouse) (Q8VDF2 whole entry R298A/N299A/T300A/G301A/K302A/S303A): as the sequence (Q8VDF2 whole entry, change not shown) above, with R298A, N299A, T300A, G301A, K302A, S303A counted along it
# [11] = target: mUHRF1 V1 R298* (R298A), full-length (mouse) (UniProt Q8VDF2); test: as above
# Sequence of mUHRF1 V1 R298* (R298A), full-length (mouse) (Q8VDF2 whole entry R298A): as the sequence (Q8VDF2 whole entry, change not shown) above, with R298A counted along it
# [12] = target: mUHRF1 V1 P-patch/R* (P293A/P294A/P295A/L297A/R298A), full-length (mouse) (UniProt Q8VDF2); test: as above
# Sequence of mUHRF1 V1 P-patch/R* (P293A/P294A/P295A/L297A/R298A), full-length (mouse) (Q8VDF2 whole entry P293A/P294A/P295A/L297A/R298A): as the sequence (Q8VDF2 whole entry, change not shown) above, with P293A, P294A, P295A, L297A, R298A counted along it
# [13] = target: recombinant mUHRF1 V1 (mouse) (UniProt Q8VDF2); test: MST; 50 nM 6× His-tagged protein labelled with RED-tris-NTA dye, peptide titrated; 20 mM HEPES–NaOH pH 7.9, 150 mM NaCl, 0.05% Tween-20; room temperature; also with 100-fold molar excess of 16:0 PI5P (Figure 3D)
# Sequence of recombinant mUHRF1 V1 (mouse) (Q8VDF2 whole entry): as the sequence (Q8VDF2 whole entry, change not shown) above
# [14] = target: recombinant hUHRF1 (human) (UniProt Q96T88); test: as above
# Sequence of recombinant hUHRF1 (human) (Q96T88 whole entry): as the sequence (Q96T88 whole entry) above
substance,measurement,setting,value
"mTTD-PHD V1 TTD* (Y184A/Y187A, aromatic cage mutant) (from UniProt Q8VDF2-1 122-380) (domain or fragment)",Kd,[1],19.5 µM
same,Kd,[2],21.4 µM
"murine UHRF1 splicing variant 1 (mUHRF1 V1), full-length, wild type (from UniProt Q8VDF2 1-782) (natural protein)",Kd,[1],12.7 µM
same,Kd,[2],6.4 µM
mTTD-PHD V2 module (mUHRF1 V2 122-372) (domain or fragment),Kd,[1],10.5 µM
same,Kd,[2],14.4 µM
"murine UHRF1 splicing variant 2 (mUHRF1 V2), full-length, wild type (natural protein)",Kd,[1],14.8 µM
same,Kd,[2],19.8 µM
same,Kd,[3],> 50 µM
isolated tandem tudor domain of human UHRF1 (hTTD) (from UniProt Q96T88 1-793) (domain or fragment),Kd,[2],4.9 µM
same,Kd,[3],6.3 µM
"human UHRF1 (hUHRF1), full-length, wild type (from UniProt Q96T88-1 1-793) (natural protein)",Kd,[1],15 µM
same,Kd,[2],7.7 µM
"histone H3 N-terminal tail peptide, R2 symmetrically dimethylated and K9 trimethylated (MST)",Kd,[4],28 µM
same,Kd,[5],16 µM
same,Kd,[6],14 µM
mTTD-PHD V1 (domain or fragment),Kd,[7],> 300 µM
same,Kd,[8],4.9 µM
same,Kd,[9],14.3 µM
"histone H3 N-terminal tail peptide, unmodified (MST)",Kd,[4],5.3 µM
same,Kd,[10],5.1 µM
same,Kd,[5],2.5 µM
same,Kd,[6],5.8 µM
same,Kd,[11],4.6 µM
same,Kd,[12],4.1 µM
"histone H3 N-terminal tail peptide, K9 trimethylated (MST)",Kd,[4],1.4 µM
same,Kd,[10],6.2 µM
same,Kd,[5],1.5 µM
same,Kd,[6],4.5 µM
same,Kd,[11],6.7 µM
same,Kd,[12],6.3 µM
H3R2me2sK9me3 peptide (titrated in MST),fold reduction of binding against the H3K9me3 peptide,[13],20 fold
same,fold weaker affinity against the H3K9me3 peptide,[14],10 fold
isolated tandem tudor domain of murine UHRF1 (mTTD) (from UniProt Q8VDF2 1-782) (domain or fragment),Kd,[2],2.7 µM
same,Kd,[3],3.4 µM
"hTTD-PHD module of human UHRF1, wild type (from UniProt Q96T88 1-793) (domain or fragment)",Kd,[1],2.4 µM
same,Kd,[2],2.6 µM
mTTD-PHD V2 (domain or fragment),Kd,[7],12.3 µM
